B1: mouse MCM8 protein (other)
chain: MSGAYRGRGFGRGRFQSWKRGRGGGNFSGRWRERENRVDLNEASGKHASAQASQPLLQQSTLDQFIPYKGWKLYFSEVYSNNSPFIEKIQAFEKFFTRHIDLYDKDEIERKGSILVDFKELTKADEITNLIPDIENALRDAPEKTLACMGLAIHQVLTKDLERHAAELQAQEGLSNGGETMVNVPHIYARVYNYEPLTHLKNIRATCYGKYISIRGTVVRVSNIKPLCTNMAFQCAACGEIQSFPLPDGKYTLPTKCPVPACRGRSFAPLRSSPLTVTLDWQLIKIQELMSDAQREAGRIPRTIECELVHDLVDSCVPGDTVTVTGIVKVSNSEEGSRNKNDKCMFLLYIEANSVSNSKGPKAQTAEDGCKHGTLMEFSLKDLYAIREIQAEENLLKLVVNSLCPVIFGHELVKAGLTLALFGGSQKYADDKNRIPIRGDPHVLIVGDPGLGKSQMLQAACNVAPRGVYVCGNTTTSSGLTVTLSKDSSSGDFALEAGALVLGDQGICGIDEFDKMGNQHQALLEAMEQQSISLAKAGVVCSLPARTSIVAAANPVGGHYNKARTVSENLKMGSALLSRFDLVFILLDTPNEQHDHLLSEHVIAIRAGKQKAVSSATVTRVLSQDSNTSVLEVVSEKPLSERLKVAPGEQTDPIPHQLLRKYIGYARQYVHPRLSTDAAQALQDFYLELRKQSQRVGSSPITTRQLESLIRLTEARARLELREEATREDAEDIIEIMKHSMLGTYSDEFGNLDFERSQHGSGMSNRSTAKRFISALNSIAERTYNNIFQYHQLRQIAKELNIQVADFENFIGSLNDQGYLLKKGPKIYQLQTM
notes: Endogenous protein in mouse testes extracts and MEF cell extracts

Tests used:
MCM2 = target: T1, MCM2 (mouse, UniProt P97310 2-904); test: co-immunoprecipitation from mouse testes extracts, western blot (FIG. 18A)
T1 construct: Detected by western blot (sc-9839) in the immunoprecipitates from mouse testes extracts; also called member of the MCM2-7 complex
From the text: (§1) FIG. 18A represents immunoprecipitations of MCM8 (IP anti-MCM8; lane C) and MCM9 (IP anti-MCM9; lane D) from testes extracts blotted against MCM9 (panel 1), MCM8 (panel 2), MCM2 (panel 3) and MCM5 (panel 4). To normalize the loading, IgGs of each IP are also shown (panel 5).

mouse MCM8 protein = target: B1; test: as above
From the text: as §1

T1 sequence (P97310 2-904 limits assumed): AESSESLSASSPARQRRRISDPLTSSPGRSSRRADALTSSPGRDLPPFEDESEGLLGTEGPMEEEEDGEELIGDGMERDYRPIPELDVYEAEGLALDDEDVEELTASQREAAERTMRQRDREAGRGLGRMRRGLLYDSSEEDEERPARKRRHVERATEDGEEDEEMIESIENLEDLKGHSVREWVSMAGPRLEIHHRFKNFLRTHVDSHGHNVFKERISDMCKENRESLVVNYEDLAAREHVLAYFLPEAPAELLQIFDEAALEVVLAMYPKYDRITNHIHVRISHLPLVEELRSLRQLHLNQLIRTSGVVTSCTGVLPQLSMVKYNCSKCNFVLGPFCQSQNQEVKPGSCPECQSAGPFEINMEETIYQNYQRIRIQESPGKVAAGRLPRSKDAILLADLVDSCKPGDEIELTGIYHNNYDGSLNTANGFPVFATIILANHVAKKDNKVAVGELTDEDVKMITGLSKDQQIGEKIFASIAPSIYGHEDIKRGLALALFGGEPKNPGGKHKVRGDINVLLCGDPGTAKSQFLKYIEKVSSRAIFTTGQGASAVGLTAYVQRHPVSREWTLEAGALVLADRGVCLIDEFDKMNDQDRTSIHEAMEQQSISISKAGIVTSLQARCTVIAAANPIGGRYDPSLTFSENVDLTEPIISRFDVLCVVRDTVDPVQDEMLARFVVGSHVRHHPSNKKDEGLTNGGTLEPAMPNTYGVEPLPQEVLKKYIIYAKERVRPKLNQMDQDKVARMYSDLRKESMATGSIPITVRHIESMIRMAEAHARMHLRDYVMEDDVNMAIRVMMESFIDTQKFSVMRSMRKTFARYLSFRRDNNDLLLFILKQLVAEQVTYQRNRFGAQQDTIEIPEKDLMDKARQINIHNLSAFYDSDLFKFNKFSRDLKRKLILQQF

binding result (MCM2)	binding result (mouse MCM8 protein)	Binder
no binding		B1
	no binding	MCM5 (other, mouse, UniProt P49718 2-734, looked up, Detected by western blot (sc-22780) in the immunoprecipitates from mouse testes extracts; also called member of the MCM2-7 complex) SGFDDPGIFYSDSFGGDPGAEEGQARKSQLQRRFKEFLRQYRVGTDRTGFTFKYRDELKRHYNLGEYWIEVEMEDLASFDEELADHLHKQPAEHLQLLEEAAKEVADEVTRPRPAGDELLQDIQVMLKSDASPSSIRILKSDMMSHLVKIPGIIISASAVRAKATRISIQCRSCHNTLTNIAMRPGLEGYALPRKCNMDQAGRPKCPLDPYFIMPDKCKCVDFQTLKLQELPDAVPHGEMPRHMQLYCDRYLCDKVVPGNRVTIMGIYSIKKFGLNPSKGRDRVGVGIRSSYIRVLGIQVDTDGSGRSFAGSVSPQEEEEFRRLAALPNIYELISKSISPSIFGGMDMKKAIACLLFGGSRKRLPDGLTRRGDINLLMLGDPGTAKSQLLKFVEKCSPIGVYTSGKGSSAAGLTASVIRDPSSRNFIMEGGAMVLADGGVVCIDEFDKMREDDRVAIHEAMEQQTISIAKAGITTTLNSRCSVLAAANSVFGRWDETKGEDNIDFMPTILSRFDMIFIVKDEHNEERDMMLAKHVMTLHVSALTQTQAVEGEIDLAKMKKFIAYCRARCGPRLSAEAAEKLKNRYIIMRSGARQHERDSDRRSSIPITVRQLEAIVRIAEALSKMKLQPFATEADVEEALRLFQVSTLDAALSGNLSGVEGFTTQEDQEMLSRIEKQLKRRFAIGSQVSEHSIVQDFTKQKYPEHAIRKVLQLMLRRGEIQHRMQRKVLYRLK

Reference: US20140227280A1 (CENTRE NATIONAL DE LA RECHERCHE SCIENTIFIQUE, published 2014)
